± gives the uncertainty stated by the source.

B1: Androgen receptor, residues 557 to 632; numbered along this chain, P10275 (parent)
chain: QKTCLICGDEASGCHYGALTCGSCKVFFKRAAEGKQKYLCASRNDCTIDKFRRKNCPSCRLRKCYEAGMTLGARKL

Variants of B1 are the subject of this data set. Nature of the data set: abundance fitness (aPCA) (normalised: wild type 0, dead -1); higher = more abundant; growth selection in yeast, the domain comes from the species named. The following applies: Homo sapiens.
For the variant H15N, the abundance fitness is -0.157 ± 0.088.

As to H15C, the abundance fitness was -0.037 ± 0.11.

H15G: the abundance fitness is -0.151 ± 0.054.

As to H15Y, the abundance fitness was -0.237 ± 0.16.

For the variant H15L, the abundance fitness was -0.211 ± 0.074.

Regarding H15M, the abundance fitness is -0.088 ± 0.11.

On to R30Q, for which the abundance fitness is -0.029 ± 0.089.

As for R30K, the abundance fitness was found to be 0.103 ± 0.087.

As for R30V, the abundance fitness is -0.066 ± 0.065.

R30P: the abundance fitness was -0.395 ± 0.098.

In the case of R30A, the abundance fitness was -0.094 ± 0.093.

As for R30L, the abundance fitness amounted to 0.099 ± 0.053.

With R30I, the abundance fitness is -0.067 ± 0.058.

As to R30D, the abundance fitness was -0.066 ± 0.11.

Q36I: the abundance fitness is -0.197 ± 0.067.

Regarding Q36K, the abundance fitness was determined as 0.013 ± 0.08.

For Q36A, the abundance fitness is -0.019 ± 0.047.

Take Q36P: the abundance fitness was -0.006 ± 0.052.

With Q36F, the abundance fitness is -0.156 ± 0.066.

As for Q36H, the abundance fitness was -0.01 ± 0.065.

Turning to K37C, the abundance fitness is -0.185 ± 0.093.

Turning to K37I, the abundance fitness is -0.091 ± 0.15.

As for K37S, the abundance fitness is -0.086 ± 0.062.

On to K37L, for which the abundance fitness is -0.126 ± 0.055.

As to K50I, the abundance fitness is -0.26 ± 0.3.

As to K50T, the abundance fitness is -0.068 ± 0.18.

For K50V, the abundance fitness is -0.063 ± 0.069.

With K50F, the abundance fitness was -0.277 ± 0.22.

K50D: the abundance fitness is -0.403 ± 0.35.

In the case of K50W, the abundance fitness is -0.227 ± 0.099.

With K50N, the abundance fitness is 0.087 ± 0.34.

Regarding G17Q, the abundance fitness is -0.357 ± 0.05.

For the variant G17L, the abundance fitness was -0.552 ± 0.048.

For G17W, the abundance fitness was -0.645 ± 0.065.

C21G: the abundance fitness is -0.976 ± 0.099.

Consider C21M, for which the abundance fitness is -0.953 ± 0.12.

Take C21A: the abundance fitness is -0.732 ± 0.1.

In the case of C21K, the abundance fitness was -0.988 ± 0.17.

As to C21Q, the abundance fitness was -0.564 ± 0.13.

For the variant C21Y, the abundance fitness is -0.849 ± 0.2.

On to C21E, for which the abundance fitness was -0.68 ± 0.12.

For C21V, the abundance fitness was -0.754 ± 0.068.

Consider C21W, for which the abundance fitness was -0.694 ± 0.2.

Consider C21H, for which the abundance fitness was -0.602 ± 0.15.

On to C14H, for which the abundance fitness was -0.035 ± 0.12.

On to C14R, for which the abundance fitness was -0.142 ± 0.055.

Take C14F: the abundance fitness is -0.1 ± 0.11.

In the case of C14T, the abundance fitness worked out at 0.099 ± 0.11.

In the case of C14L, the abundance fitness came to 0 ± 0.056.

Take C14E: the abundance fitness was found to be 0.002 ± 0.081.

Turning to C14S, the abundance fitness was -0.105 ± 0.069.

G13K: the abundance fitness is -0.229 ± 0.088.

G13I: the abundance fitness is -0.416 ± 0.28.

For the variant G13V, the abundance fitness was -0.061 ± 0.062.

Take G13A: the abundance fitness was -0.167 ± 0.07.

F27Q: the abundance fitness was -0.839 ± 0.093.

As for F27W, the abundance fitness was -0.387 ± 0.046.

As to F27T, the abundance fitness was -0.91 ± 0.07.

Take F27S: the abundance fitness is -0.983 ± 0.071.

On to F27D, for which the abundance fitness was -0.519 ± 0.085.

Take F27E: the abundance fitness was -0.73 ± 0.07.

For the variant R74C, the abundance fitness came to 0.06 ± 0.082.

R74M: the abundance fitness was -0.056 ± 0.1.

With R74F, the abundance fitness was -0.165 ± 0.15.

R74V: the abundance fitness is -0.063 ± 0.068.

For R74L, the abundance fitness is -0.18 ± 0.089.

As to R74N, the abundance fitness was -0.044 ± 0.1.

As to R74H, the abundance fitness was -0.036 ± 0.12.

Regarding R74P, the abundance fitness is 0.13 ± 0.1.

As to C4L, the abundance fitness is -0.745 ± 0.35.

For the variant E33M, the abundance fitness came to 0.014 ± 0.065.

Take E33H: the abundance fitness was -0.153 ± 0.086.

As to E33I, the abundance fitness is 0.03 ± 0.062.

In the case of E33L, the abundance fitness is -0.173 ± 0.046.

Consider E33D, for which the abundance fitness is -0.066 ± 0.063.

E33P: the abundance fitness was -0.135 ± 0.066.

As to E33K, the abundance fitness came to 0.013 ± 0.075.

For E33A, the abundance fitness is -0.121 ± 0.05.

Turning to Y38Q, the abundance fitness was -0.072 ± 0.086.

Turning to Y38R, the abundance fitness was -0.239 ± 0.058.

Take Y38M: the abundance fitness was -0.036 ± 0.09.

As to Y38N, the abundance fitness is -0.245 ± 0.094.

With Y38F, the abundance fitness was -0.097 ± 0.093.

Consider Y38W, for which the abundance fitness was -0.239 ± 0.11.

In the case of G72C, the abundance fitness was -0.075 ± 0.13.

On to G72S, for which the abundance fitness is -0.092 ± 0.1.

On to G72L, for which the abundance fitness is -0.062 ± 0.068.

Regarding G72Y, the abundance fitness was -0.074 ± 0.13.

For the variant G72F, the abundance fitness is 0.06 ± 0.11.

As to G72H, the abundance fitness was -0.046 ± 0.15.

Consider K35I, for which the abundance fitness is -0.09 ± 0.058.

Take K35T: the abundance fitness was 0.039 ± 0.053.

K35M: the abundance fitness is 0.018 ± 0.07.

On to K35E, for which the abundance fitness was 0.084 ± 0.058.

As for K35L, the abundance fitness was -0.135 ± 0.044.

For K35P, the abundance fitness amounted to 0.074 ± 0.068.

For the variant K35S, the abundance fitness was -0.031 ± 0.044.

As for Y16S, the abundance fitness was -0.408 ± 0.038.

For Y16H, the abundance fitness is -0.333 ± 0.21.

For the variant Y16Q, the abundance fitness was -0.487 ± 0.074.

As to Y16R, the abundance fitness was -0.684 ± 0.043.

Consider S58R, for which the abundance fitness was -0.09 ± 0.059.

On to S58H, for which the abundance fitness was -0.112 ± 0.061.

As to S58L, the abundance fitness is -0.251 ± 0.059.

As for A31E, the abundance fitness is -0.093 ± 0.068.

A31S: the abundance fitness is -0.024 ± 0.059.

As to A31G, the abundance fitness is -0.086 ± 0.045.

As for A31I, the abundance fitness was -0.387 ± 0.17.

With A31T, the abundance fitness came out at 0.025 ± 0.064.

Take A31F: the abundance fitness was -0.214 ± 0.12.

For A31C, the abundance fitness is -0.072 ± 0.062.

Turning to C7Y, the abundance fitness was -0.583 ± 0.4.

As for C7N, the abundance fitness is -0.212 ± 0.14.

Regarding C7T, the abundance fitness was -0.819 ± 0.47.

As to C7G, the abundance fitness was -0.874 ± 0.15.

Consider G68D, for which the abundance fitness was -0.581 ± 0.47.

Take K63I: the abundance fitness was -0.146 ± 0.095.

For K63M, the abundance fitness is -0.133 ± 0.1.

Turning to K63H, the abundance fitness is -0.423 ± 0.1.

Turning to K63T, the abundance fitness was -0.033 ± 0.068.

Consider K63F, for which the abundance fitness was -0.347 ± 0.12.

Consider K63A, for which the abundance fitness is -0.141 ± 0.084.

For K63Y, the abundance fitness was -0.704 ± 0.2.

As to K63Q, the abundance fitness is -0.084 ± 0.11.

As to K63L, the abundance fitness was -0.111 ± 0.061.

As to C40D, the abundance fitness is -1.14 ± 0.25.

Consider C40E, for which the abundance fitness is -0.576 ± 0.25.

With C40Y, the abundance fitness is -1.13 ± 0.39.

Consider A41Y, for which the abundance fitness was 0.044 ± 0.081.

Take A41V: the abundance fitness is 0.01 ± 0.061.

Turning to A41H, the abundance fitness is -0.279 ± 0.078.

A41F: the abundance fitness was -0.113 ± 0.09.

For the variant A41K, the abundance fitness was -0.368 ± 0.16.

A41W: the abundance fitness was -0.187 ± 0.11.

For the variant A41L, the abundance fitness is -0.047 ± 0.077.

For the variant A41D, the abundance fitness is 0.041 ± 0.081.

Consider P57H, for which the abundance fitness was found to be 0.02 ± 0.07.

P57Y: the abundance fitness is -0.03 ± 0.051.

Take P57V: the abundance fitness was -0.037 ± 0.072.

Take P57D: the abundance fitness was 0.1 ± 0.069.

With P57T, the abundance fitness was -0.111 ± 0.079.

Consider P57I, for which the abundance fitness is -0.167 ± 0.087.

Take P57R: the abundance fitness is -0.1 ± 0.057.

As for L19P, the abundance fitness is -0.106 ± 0.23.

Consider L19R, for which the abundance fitness was -0.006 ± 0.044.

On to L19S, for which the abundance fitness is -0.109 ± 0.051.

As for L19E, the abundance fitness was determined as 0.034 ± 0.043.

With L19G, the abundance fitness is -0.399 ± 0.044.

Take L19V: the abundance fitness was -0.035 ± 0.047.

For the variant L19Y, the abundance fitness is -0.101 ± 0.081.

Turning to L19T, the abundance fitness was -0.017 ± 0.13.

For the variant L19C, the abundance fitness is -0.19 ± 0.16.

As to A32I, the abundance fitness was -0.011 ± 0.061.

A32F: the abundance fitness was -0.197 ± 0.065.

For A32G, the abundance fitness is -0.001 ± 0.048.

In the case of A32Q, the abundance fitness amounted to 0.034 ± 0.058.

On to A32E, for which the abundance fitness turned out to be 0.036 ± 0.089.

Take A32P: the abundance fitness was -0.591 ± 0.13.

In the case of L71P, the abundance fitness is -0.15 ± 0.075.

On to L71V, for which the abundance fitness is -0.085 ± 0.064.

With L71H, the abundance fitness was -0.164 ± 0.084.

L71R: the abundance fitness was -0.25 ± 0.066.

Take T3Y: the abundance fitness is -0.003 ± 0.15.

Consider T3E, for which the abundance fitness is -0.148 ± 0.096.

Consider T3P, for which the abundance fitness was -0.229 ± 0.12.

T3Q: the abundance fitness was -0.04 ± 0.097.

On to T3L, for which the abundance fitness is -0.035 ± 0.075.

These data come from the Human Domainome abundance scans (Beltran et al. 2025).
